Measured values published in patent US20180155451A1 (published 2018).

T1: FcγRIIa H (human, UniProt P12318 34-217)
T1 construct: extracellular domain; also called FcγRIIa type H; 2aH
T1 sequence (looked up): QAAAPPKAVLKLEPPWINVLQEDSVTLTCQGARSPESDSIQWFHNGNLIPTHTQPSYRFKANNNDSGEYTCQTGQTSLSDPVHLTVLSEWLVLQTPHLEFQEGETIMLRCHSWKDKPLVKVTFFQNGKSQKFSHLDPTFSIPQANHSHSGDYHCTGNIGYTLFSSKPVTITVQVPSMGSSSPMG

T2: FcγRIIb (human, UniProt P31994 43-217)
T2 construct: extracellular domain; also called 2b
T2 sequence (looked up): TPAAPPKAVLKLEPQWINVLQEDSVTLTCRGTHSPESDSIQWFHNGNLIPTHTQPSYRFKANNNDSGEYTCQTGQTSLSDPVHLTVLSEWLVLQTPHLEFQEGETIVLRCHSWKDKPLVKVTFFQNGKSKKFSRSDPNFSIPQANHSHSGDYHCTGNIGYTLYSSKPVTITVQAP

T3: FcγRIIb extracellular domain with C-terminal His tag (human, UniProt P31994 43-217)
T3 construct: extracellular domain; Expressed in FreeStyle293 cells; used as analyte in Biacore; also called FcgRIIb; 2b; not shown: C-terminal His tag
T3 sequence (looked up): T2 sequence (looked up)

B1: GpH7-A5/GpH7-B3 variant S267_08L/GpL16-k0 (antibody, human IgG1, kappa)
heavy 1: not shown
heavy 2: not shown
light: DIVMTQSPLSLPVTPGEPASISCQASESLVHSNRNTYLHWYLQKPGQSPQLLIYKVSNRFSGVPDRFSGSGSGTDFTLKISRVEAEDVGVYYCSQNTHVPPTFGQGTKVEIERTVAAPSVFIFPPSDEQLKSGTASVVCLLNNFYPREAKVQWKVDNALQSGNSQESVTEQDSKDSTYSLSSTLTLSKADYEKHKVYACEVTHQGLSSPVTKSFNRGEC
notes: heterodimerized IgG1, mutation in one H chain only; also called He Ab
B2: GpH7-A5/GpH7-B3 variant V266_20W/GpL16-k0 (antibody, human IgG1, kappa)
heavy 1: not shown
heavy 2: not shown
light: B1 light
notes: as for B1
B3: GpH7-A5/GpH7-B3 variant S267_16H/GpL16-k0 (antibody, human IgG1, kappa)
heavy 1: not shown
heavy 2: not shown
light: B1 light
notes: as for B1
B4: GpH7-A5/GpH7-B3 variant S267_09D/GpL16-k0 (antibody, human IgG1, kappa)
heavy 1: not shown
heavy 2: not shown
light: B1 light
notes: as for B1
B5: GpH7-A5/GpH7-B3 variant S267_19Q/GpL16-k0 (antibody, human IgG1, kappa)
heavy 1: not shown
heavy 2: not shown
light: B1 light
notes: as for B1
B6: GpH7-A5/GpH7-B3 variant S298_08L/GpL16-k0 (antibody, human IgG1, kappa)
heavy 1: not shown
heavy 2: not shown
light: B1 light
notes: as for B1
B7: GpH7-A5/GpH7-B3 variant V266_16H/GpL16-k0 (antibody, human IgG1, kappa)
heavy 1: not shown
heavy 2: not shown
light: B1 light
notes: as for B1
B8: GpH7-A5/GpH7-B3 variant S267_10E/GpL16-k0 (antibody, human IgG1, kappa)
heavy 1: not shown
heavy 2: not shown
light: B1 light
notes: as for B1
B9: GpH7-A5/GpH7-B3 variant S267_14T/GpL16-k0 (antibody, human IgG1, kappa)
heavy 1: not shown
heavy 2: not shown
light: B1 light
notes: as for B1
B10: GpH7-A5/GpH7-B3 variant S267_15Y/GpL16-k0 (antibody, human IgG1, kappa)
heavy 1: not shown
heavy 2: not shown
light: B1 light
notes: as for B1
B11: GpH7-A5/GpH7-B3 variant S267_20W/GpL16-k0 (antibody, human IgG1, kappa)
heavy 1: not shown
heavy 2: not shown
light: B1 light
notes: as for B1
B12: GpH7-A5/GpH7-B3 variant Y300_10E/GpL16-k0 (antibody, human IgG1, kappa)
heavy 1: not shown
heavy 2: not shown
light: B1 light
notes: as for B1
B13: GpH7-A5/GpH7-B3 variant V266_19Q/GpL16-k0 (antibody, human IgG1, kappa)
heavy 1: not shown
heavy 2: not shown
light: B1 light
notes: as for B1
B14: GpH7-B3 variant L328_03V/GpL16-k0 (Ho Ab) (antibody, human IgG1, kappa)
heavy: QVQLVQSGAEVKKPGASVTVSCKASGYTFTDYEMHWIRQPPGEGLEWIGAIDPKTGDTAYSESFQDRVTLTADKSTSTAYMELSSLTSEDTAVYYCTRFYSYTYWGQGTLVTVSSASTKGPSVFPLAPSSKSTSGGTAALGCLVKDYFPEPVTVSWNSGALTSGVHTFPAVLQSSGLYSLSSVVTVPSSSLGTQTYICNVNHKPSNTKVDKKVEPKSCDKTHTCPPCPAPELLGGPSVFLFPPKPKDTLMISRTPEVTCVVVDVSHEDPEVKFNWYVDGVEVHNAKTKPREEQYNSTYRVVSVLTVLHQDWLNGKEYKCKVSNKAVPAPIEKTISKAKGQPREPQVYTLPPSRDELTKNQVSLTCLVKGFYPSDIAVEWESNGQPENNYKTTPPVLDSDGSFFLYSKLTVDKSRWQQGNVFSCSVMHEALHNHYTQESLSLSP
light: B1 light
notes: Substitution in both H chains; position in EU numbering; also called L328V homodimerized antibody
B15: GpH7-B3 variant L328_04F/GpL16-k0 (Ho Ab) (antibody, human IgG1, kappa)
heavy: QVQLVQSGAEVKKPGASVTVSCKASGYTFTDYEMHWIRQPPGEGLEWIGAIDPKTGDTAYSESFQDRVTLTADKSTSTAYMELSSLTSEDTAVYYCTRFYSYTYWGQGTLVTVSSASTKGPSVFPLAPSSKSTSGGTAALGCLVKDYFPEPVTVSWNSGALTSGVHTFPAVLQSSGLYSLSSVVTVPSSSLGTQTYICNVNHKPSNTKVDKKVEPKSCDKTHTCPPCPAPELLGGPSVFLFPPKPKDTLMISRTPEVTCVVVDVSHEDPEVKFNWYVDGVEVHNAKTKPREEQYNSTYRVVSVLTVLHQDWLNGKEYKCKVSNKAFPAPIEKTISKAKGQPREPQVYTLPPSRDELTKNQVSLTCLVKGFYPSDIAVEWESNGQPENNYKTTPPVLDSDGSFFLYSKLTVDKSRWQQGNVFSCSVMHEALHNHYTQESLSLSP
light: B1 light
notes: Substitution in both H chains; position in EU numbering; also called L328F homodimerized antibody
B16: GpH7-B3 variant S239_08L/GpL16-k0 (Ho Ab) (antibody, human IgG1, kappa)
heavy: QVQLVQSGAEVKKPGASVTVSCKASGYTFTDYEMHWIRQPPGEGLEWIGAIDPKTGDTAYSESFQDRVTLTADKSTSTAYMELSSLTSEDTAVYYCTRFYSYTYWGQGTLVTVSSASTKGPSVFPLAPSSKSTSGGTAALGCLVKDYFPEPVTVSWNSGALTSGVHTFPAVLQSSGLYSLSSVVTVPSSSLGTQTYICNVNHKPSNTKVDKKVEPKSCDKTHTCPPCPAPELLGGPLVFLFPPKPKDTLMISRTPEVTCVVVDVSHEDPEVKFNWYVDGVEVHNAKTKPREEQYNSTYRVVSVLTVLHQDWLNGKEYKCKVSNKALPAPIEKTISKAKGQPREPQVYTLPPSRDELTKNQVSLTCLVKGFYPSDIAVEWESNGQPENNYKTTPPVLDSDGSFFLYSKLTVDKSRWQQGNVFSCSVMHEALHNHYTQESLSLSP
light: B1 light
notes: Substitution in both H chains; position in EU numbering; also called S239L homodimerized antibody
B17: GpH7-B3 variant S337_09D/GpL16-k0 (Ho Ab) (antibody, human IgG1, kappa)
heavy: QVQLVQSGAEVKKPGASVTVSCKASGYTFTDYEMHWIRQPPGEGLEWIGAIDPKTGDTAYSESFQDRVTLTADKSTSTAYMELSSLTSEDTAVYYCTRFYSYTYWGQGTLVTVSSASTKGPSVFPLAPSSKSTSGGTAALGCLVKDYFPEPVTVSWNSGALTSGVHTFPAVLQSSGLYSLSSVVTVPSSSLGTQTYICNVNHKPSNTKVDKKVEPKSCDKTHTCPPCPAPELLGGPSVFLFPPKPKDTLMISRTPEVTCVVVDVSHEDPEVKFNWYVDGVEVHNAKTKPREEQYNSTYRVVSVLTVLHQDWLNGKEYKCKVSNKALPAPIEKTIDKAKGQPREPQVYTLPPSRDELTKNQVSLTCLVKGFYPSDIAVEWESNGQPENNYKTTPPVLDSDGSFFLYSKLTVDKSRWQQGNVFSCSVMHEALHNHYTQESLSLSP
light: B1 light
notes: Substitution in both H chains; position in EU numbering; also called S337D homodimerized antibody
B18: GpH7-B3 variant S267_14T/GpL16-k0 (Ho Ab) (antibody, human IgG1, kappa)
heavy: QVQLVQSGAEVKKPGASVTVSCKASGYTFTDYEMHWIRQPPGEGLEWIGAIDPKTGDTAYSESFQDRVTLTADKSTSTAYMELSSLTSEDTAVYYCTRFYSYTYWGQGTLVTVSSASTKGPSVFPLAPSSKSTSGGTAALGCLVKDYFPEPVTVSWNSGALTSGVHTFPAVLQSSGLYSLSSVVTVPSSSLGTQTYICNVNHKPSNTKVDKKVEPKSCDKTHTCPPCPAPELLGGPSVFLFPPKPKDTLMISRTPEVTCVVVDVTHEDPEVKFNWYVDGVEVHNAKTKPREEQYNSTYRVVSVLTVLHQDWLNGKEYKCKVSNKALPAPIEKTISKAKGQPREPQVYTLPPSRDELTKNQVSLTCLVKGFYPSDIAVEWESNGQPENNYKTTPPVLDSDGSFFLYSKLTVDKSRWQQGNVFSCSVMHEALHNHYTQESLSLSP
light: B1 light
notes: Substitution in both H chains; position in EU numbering; also called S267T homodimerized antibody
B19: GpH7-B3 variant S239_01G/GpL16-k0 (Ho Ab) (antibody, human IgG1, kappa)
heavy: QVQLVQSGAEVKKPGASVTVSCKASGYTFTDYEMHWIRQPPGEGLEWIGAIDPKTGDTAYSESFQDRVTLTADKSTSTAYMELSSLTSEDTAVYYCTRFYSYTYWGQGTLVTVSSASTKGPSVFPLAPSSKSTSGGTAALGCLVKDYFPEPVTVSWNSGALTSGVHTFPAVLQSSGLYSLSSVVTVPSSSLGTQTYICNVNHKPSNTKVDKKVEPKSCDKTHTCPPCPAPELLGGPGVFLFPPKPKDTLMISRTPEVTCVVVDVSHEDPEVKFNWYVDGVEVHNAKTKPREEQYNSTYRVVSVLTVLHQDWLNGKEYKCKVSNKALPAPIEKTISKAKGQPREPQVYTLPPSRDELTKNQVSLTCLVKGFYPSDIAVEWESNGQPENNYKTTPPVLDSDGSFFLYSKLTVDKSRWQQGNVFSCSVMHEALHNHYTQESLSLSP
light: B1 light
notes: Substitution in both H chains; position in EU numbering; also called S239G homodimerized antibody
B20: GpH7-B3 variant S267_02A/GpL16-k0 (Ho Ab) (antibody, human IgG1, kappa)
heavy: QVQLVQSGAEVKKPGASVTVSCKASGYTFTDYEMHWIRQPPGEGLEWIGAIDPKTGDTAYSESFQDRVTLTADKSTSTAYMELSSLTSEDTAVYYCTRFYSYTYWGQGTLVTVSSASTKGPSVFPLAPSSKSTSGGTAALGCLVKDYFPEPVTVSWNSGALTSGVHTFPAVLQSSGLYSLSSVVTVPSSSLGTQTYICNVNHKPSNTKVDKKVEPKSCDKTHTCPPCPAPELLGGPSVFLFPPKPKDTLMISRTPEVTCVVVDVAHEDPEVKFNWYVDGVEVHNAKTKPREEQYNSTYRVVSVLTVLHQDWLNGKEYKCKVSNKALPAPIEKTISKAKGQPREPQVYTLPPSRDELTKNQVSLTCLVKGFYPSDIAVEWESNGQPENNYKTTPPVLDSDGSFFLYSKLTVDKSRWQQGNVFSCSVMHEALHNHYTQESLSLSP
light: B1 light
notes: Substitution in both H chains; position in EU numbering; also called S267A homodimerized antibody
B21: GpH7-B3 variant L328_19Q/GpL16-k0 (Ho Ab) (antibody, human IgG1, kappa)
heavy: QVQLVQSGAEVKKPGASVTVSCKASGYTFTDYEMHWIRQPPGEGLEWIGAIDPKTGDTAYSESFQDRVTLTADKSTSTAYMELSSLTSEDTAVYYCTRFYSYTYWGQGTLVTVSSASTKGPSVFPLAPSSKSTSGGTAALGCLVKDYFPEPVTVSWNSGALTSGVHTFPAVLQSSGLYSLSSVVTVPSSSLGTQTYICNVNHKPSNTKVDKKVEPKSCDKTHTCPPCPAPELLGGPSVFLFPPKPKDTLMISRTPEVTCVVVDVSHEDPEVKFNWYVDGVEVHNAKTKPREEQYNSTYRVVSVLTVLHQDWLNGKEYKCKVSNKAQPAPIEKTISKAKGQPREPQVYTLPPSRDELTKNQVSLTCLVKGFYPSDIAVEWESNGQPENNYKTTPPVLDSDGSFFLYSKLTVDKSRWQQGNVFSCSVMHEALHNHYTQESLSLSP
light: B1 light
notes: Substitution in both H chains; position in EU numbering; also called L328Q homodimerized antibody
B22: GpH7-B3 variant K334_19Q/GpL16-k0 (Ho Ab) (antibody, human IgG1, kappa)
heavy: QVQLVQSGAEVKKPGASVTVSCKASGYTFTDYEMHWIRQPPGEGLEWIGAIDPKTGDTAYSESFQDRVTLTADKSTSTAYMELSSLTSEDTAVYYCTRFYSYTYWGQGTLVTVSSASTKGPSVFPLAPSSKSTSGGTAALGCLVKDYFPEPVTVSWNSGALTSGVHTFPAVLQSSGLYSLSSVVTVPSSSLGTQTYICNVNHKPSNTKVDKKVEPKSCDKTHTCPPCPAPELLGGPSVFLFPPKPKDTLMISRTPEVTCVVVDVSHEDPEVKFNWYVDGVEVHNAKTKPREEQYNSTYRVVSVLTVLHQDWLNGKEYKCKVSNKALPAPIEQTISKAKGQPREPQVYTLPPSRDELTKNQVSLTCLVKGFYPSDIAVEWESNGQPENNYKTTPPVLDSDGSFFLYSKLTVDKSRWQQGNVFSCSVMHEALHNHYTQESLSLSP
light: B1 light
notes: Substitution in both H chains; position in EU numbering; also called K334Q homodimerized antibody

Biological target: T1, FcγRIIa H
Test: SPR; He/Con_2aH divided by He/Con_2b (FcγRIIb)
Protocol: The heterodimerized antibodies He Abs in which one of the H chains was introduced with an alteration were assayed for their binding activities to each activating FcγR and inhibitory FcγR according to the method described in Example 4. […] The activating FcγRs in FIGS. 26, 27, 28, and 29 are FcγRIa, FcγRIIa (R), FcγRIIa (H), and FcγRIIIa, respectively.
Analysis of interaction between objective antibody and the FcγR was carried out using Biacore T100 (GE Healthcare). HBS-EP+ (GE Healthcare) was used as the running buffer, and the measurement temperature was set to 25° C. Chips produced by immobilizing the antigen peptide by the amine coupling method to a Series S Sencor Chip CM5 (GE Healthcare), or alternatively, chips produced by allowing preliminarily biotinylated antigen peptides to interact with and immobilize onto a Series S Sensor Chip SA (certified) (GE Healthcare) were used. Antibodies of interest were captured onto an antigen peptide-immobilized chip, and allowed to interact to each FcγR diluted with running buffer. To regenerate and repeatedly use the chip, the antibodies captured on the chip were washed off by reacting 10 mM glycine-HCl, pH 1.5.

He_2aH/2b (IIaH/IIb) [ratio] | Binder
0.27 | B1
0.17 | B2
0.45 | B3
0.34 | B4
0.28 | B5
0.78 | B6
0.37 | B7
0.27 | B8
0.61 | B9
0.52 | B10
0.66 | B11
0.73 | B12
0.52 | B13

Biological target: T2, FcγRIIb
Test: SPR (Biacore), relative binding vs GpH7-A5/GpH7-B3/GpL16-k0

He/Con_2b | Binder
109 % of control He Ab (=100) | B1
71.9 % of control He Ab (=100) | B2
65.9 % of control He Ab (=100) | B3
310 % of control He Ab (=100) | B4
218 % of control He Ab (=100) | B5
108 % of control He Ab (=100) | B6
57.2 % of control He Ab (=100) | B7
379 % of control He Ab (=100) | B8
104 % of control He Ab (=100) | B9
37.9 % of control He Ab (=100) | B10
57.2 % of control He Ab (=100) | B11
134 % of control He Ab (=100) | B12
89.2 % of control He Ab (=100) | B13

Biological target: T1, FcγRIIa H
Test: as above

He/Con_2aH | Binder
29 % of control He Ab (=100) | B1
12 % of control He Ab (=100) | B2
29.8 % of control He Ab (=100) | B3
105 % of control He Ab (=100) | B4
61.3 % of control He Ab (=100) | B5
85 % of control He Ab (=100) | B6
21.2 % of control He Ab (=100) | B7
102 % of control He Ab (=100) | B8
63.3 % of control He Ab (=100) | B9
19.6 % of control He Ab (=100) | B10
37.9 % of control He Ab (=100) | B11
97.2 % of control He Ab (=100) | B12
46.4 % of control He Ab (=100) | B13

Biological target: T3, FcγRIIb extracellular domain with …
Test: SPR (Biacore), antibody captured on antigen-peptide chip, FcgRIIb as analyte; binding relative to GpH7-B3/GpL16-k0 (HoCon Ab) = 100

Ho/Con_2b | Binder
135 % of control | B14
241 % of control | B15
142 % of control | B16
116 % of control | B17
106 % of control | B18
174 % of control | B19
274 % of control | B20
111 % of control | B21
117 % of control | B22
